Drawing on PMC3461361, this text covers stoichiometry N for one substance.

Bounds are passed on as bounds.

The experiment concerns the target Invasion plasmid antigen B (IpaB) (S. flexneri). Nature of the experiment: native gel or EMSA. For orientation: In EMSA bound probe runs differently from free probe, usually more slowly.

As a reminder, the stoichiometry N is the number of molecules, sites or subunits per partner or assembly. For the substance “Invasion plasmid antigen B (IpaB) (natural protein)”, the stoichiometry N was above 10.
